Assay results taken from patent US20150246947A1 (BAXALTA, published 2015).

How the values were obtained:
human GAS6 = target: T1, human GAS6 (human, UniProt Q14393 49-678, limits assumed); experiment: Biacore (SPR), GAS6 immobilized on the chip; sensorgrams reviewed visually
T1 construct: Immobilized on the Biacore chip; also called protein encoded by the Growth Arrest Specific-6 gene; anti-target
T1 sequence (looked up): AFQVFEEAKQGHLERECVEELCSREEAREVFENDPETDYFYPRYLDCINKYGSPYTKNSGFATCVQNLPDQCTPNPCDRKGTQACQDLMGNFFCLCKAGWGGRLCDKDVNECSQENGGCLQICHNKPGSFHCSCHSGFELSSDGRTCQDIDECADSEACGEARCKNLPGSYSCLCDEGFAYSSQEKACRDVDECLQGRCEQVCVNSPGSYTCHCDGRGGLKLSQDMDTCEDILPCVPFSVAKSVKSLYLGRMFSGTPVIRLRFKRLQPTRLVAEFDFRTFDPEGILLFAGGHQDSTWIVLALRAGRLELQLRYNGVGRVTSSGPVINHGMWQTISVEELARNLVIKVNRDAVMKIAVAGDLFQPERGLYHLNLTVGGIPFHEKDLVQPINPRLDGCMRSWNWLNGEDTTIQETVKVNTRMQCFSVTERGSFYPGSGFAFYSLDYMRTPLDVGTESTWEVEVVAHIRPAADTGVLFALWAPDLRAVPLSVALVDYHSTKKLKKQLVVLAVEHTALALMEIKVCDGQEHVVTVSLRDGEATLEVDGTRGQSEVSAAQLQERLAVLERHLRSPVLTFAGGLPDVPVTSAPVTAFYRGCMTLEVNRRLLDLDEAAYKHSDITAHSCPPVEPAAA
Protocol: Protein S affinity also was determined via Biacore (Biacore 3000 or Biacore T200) using human full-length Protein S and human GAS6. Briefly, 1000 RU of Protein S or GAS6 were immobilized on a CMS chip. In order to probe the kinetics of Protein S binding peptides to Protein S, the peptides were injected at various concentrations in a HBS-buffer containing 3 mM CaCl₂ and 1% DMSO to the flow cell and allowed to interact with the immobilized proteins on the sensor chip. The chip could be regenerated with 4 M MgCl₂ in HBS-buffer. Sensorgrams were fitted to a Langmuir binding model for the determination of kₒₙ and koff and the calculation of KD. Peptides were tested on their specificity to Protein S with peptide binding studies on the anti-target GAS6.
Interactions with the anti-target GAS6 were measured via Biacore (surface plasmon resonance) (see Example 2). The maximum signal from the interaction of the peptides with human GAS6 was much lower than the signals obtained with Protein S as interaction partner. Kinetic analysis of the low GAS6 binding signals was error prone, and sensorgrams were reviewed visually to estimate anti-target binding. […]

human Protein S = target: T2, human Protein S (human, UniProt P07225 42-676); experiment: LANCE TR-FRET; peptide added to preformed C4BP/Protein S complex; competitor C4BP
T2 construct: Called 'full length Protein S' / 'human full-length Protein S'; It was coated on plates (ELISA), Eu-labeled (LANCE) or immobilized on a chip (Biacore); also called PS; full length Protein S
T2 sequence: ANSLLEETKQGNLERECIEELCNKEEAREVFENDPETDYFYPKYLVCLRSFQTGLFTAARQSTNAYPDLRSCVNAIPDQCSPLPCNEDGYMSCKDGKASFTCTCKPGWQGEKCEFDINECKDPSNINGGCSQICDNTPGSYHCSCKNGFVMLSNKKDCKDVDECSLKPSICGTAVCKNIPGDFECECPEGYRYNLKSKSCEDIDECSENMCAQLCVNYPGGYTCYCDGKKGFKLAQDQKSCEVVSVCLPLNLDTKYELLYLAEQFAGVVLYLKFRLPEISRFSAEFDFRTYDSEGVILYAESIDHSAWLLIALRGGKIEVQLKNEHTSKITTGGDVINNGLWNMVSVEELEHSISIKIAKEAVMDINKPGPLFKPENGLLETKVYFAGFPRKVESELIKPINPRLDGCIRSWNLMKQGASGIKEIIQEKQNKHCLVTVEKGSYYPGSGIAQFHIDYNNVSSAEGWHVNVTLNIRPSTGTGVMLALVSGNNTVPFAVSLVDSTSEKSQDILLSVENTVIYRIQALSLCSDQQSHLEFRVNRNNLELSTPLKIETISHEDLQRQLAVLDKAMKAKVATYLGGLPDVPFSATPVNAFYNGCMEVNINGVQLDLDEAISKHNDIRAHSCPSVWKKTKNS
Protocol: To investigate the effect of the peptides described herein on PS/C4BP complexes, a LANCE IC50 assay was established using methods similar to those described above. JBS2572 or JBS3216 was added to a preformed C4BP/PS complex. Changes in the complex concentration were followed by recording the TR-FRET signal. For both peptides, a time- and concentration-dependent dissociation of the C4BP/PS complex was observed. […] The time-dependency of the complex reduction was similar for both peptides. After two hours of incubation in the presence of 100 nM JBS2572 or JBS3216, the C4BP/PS complex was reduced to 60% and 50%, respectively. In addition, binding of biotinylated JBS2572 to Protein S was inhibited by C4BP in the LANCE IC50 assay. Pull-down experiments where JBS2697 was coupled to streptavidin sepharose and incubated for one hour at room temperature with (a) Protein S (1.6 pmol) (b) C4BP (8.5 pmol) and (c) Protein S (1.6 pmol)+C4BP (8.5 pmol) supported the results from the modified LANCE IC50 assay. JBS2697 interacted with free Protein S only from experiment (a) with Protein S alone and from experiment (c) with the C4BP-Protein S mixture.

B1: JBS2572 (peptide)
peptide: Ac-TGLVSAGWYDYNFDHYREFT-NH2
notes: also called parent peptide JBS2572
- binding result (human GAS6): no binding (tested: 1 µM)
- IC50 (human Protein S): 2 nM
